Experimental data taken from patent US20260132208A1 (DOMAIN THERAPEUTICS, published 2026).
Positions count from the first letter of the chain named. “And” between values parts separate entries of the source, which are not always exact repeats. Equal entries are not always repeated.

B1: anti-CCR8 mAb 1-6 (antibody, V domains shown)
VH: EVQLQQSGPELLKPGTSVKISCTTSGYTFSDYTLHWVKQSHGKSLEWIGGITPKNGDTRYDPRFKDKATLTIDKSSSAAYMELRSLTSEDSAVYYCARVARFYGVSPYAMDYWGQGASVTVSS
VL: DVVMTQTPLSLPVSLGDQASISCRCTQSLLHSNGDTYLHWYLQKPGQSPKLLIYKVSNRFSGVPDRFSGSGSGTDFTLEITRVEAEDLGVYFCSQTTHVPYTFGGGTKLEIK
notes: Murine hybridoma mAb
B2: anti-CCR8 mAb 1-23 (antibody, human IgG1, kappa, V domains shown)
VH: QVQLVQSGPEVVKPGASVKVSCKTSGYTFTEYTIHWVRQAPGQSLEWVGGINPNNGNTRYDQKFQGRVTITRDKSASTAYMELRSLTSEDTAVYYCARVARSSGSGPYAMDYWGQGTTVTVSS
VL: DVVMTQSPLSLPVTLGDQASISCRCSQSLLHTNGDTYLHWYLQRPGQSPRLLIYKVSNRFSGVPDRFSGSGSGTDFTLKISRVEAEDVGVYFCSQSTHVPYTFGGGTKVEIKR
notes: Humanized mAb, human IgG1 / kappa
B3: anti-CCR8 mAb 1-24 (antibody, human IgG1, kappa, V domains shown)
VH: B2 VH with V5Q, A40S, P41H, Q65K, R72I, A76S
VL: B2 VL
notes: as for B2

What was measured:
[1] = target: T1, human CCR8 (human, UniProt P51685 1-355); test: flow cytometry, hCCR8-transfected CHO-K1 cells
T1 construct: also called hCCR8; CC chemokine receptor 8
Summary of the method: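 Antibody incubation ran 30 min at 4° C, followed by fluorescent anti-mouse or anti-human IgG secondary for 30 min at 4° C. Isotype-matched mAbs served as nonspecific-binding controls.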

[2] = target: T1, human CCR8; test: cell-based or functional assay
[3] = target: T1, human CCR8; test: cell-based or functional assay; remark: listed apart in the source
[4] = target: T1, human CCR8; test: flow cytometry, inhibition of hCCL1-AF647 (10 nM) binding to hCCR8-CHO cells
Summary of the method: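 hCCR8-transfected CHO cells preincubated 30 min at 4 °C with anti-CCR8 mAb (8 concentrations, top 10 μg/mL, 1/3 dilutions), washed, then exposed to labelled CCL1. Bound CCL1 quantified by flow cytometry; IC₅₀ of binding blockade from sigmoidal variable-slope fit.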

[5] = target: T1, human CCR8; test: cell-based or functional assay; remark: listed apart in the source
[6] = target: T2, pm2 (sulfated tyrosine(s) among Y15, Y16, Y17; which ones is not told (the underlining of Table 1 is lost in the text)); test: ELISA on coated peptide [cont.]
T2 construct: also called sulfated CCR8 N-terminal peptide pm2
Summary of the method: (§1)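 Each antibody is tested at 1 μg/mL plus a 1/10 dilution against peptide coated at 500 ng/ml in carbonate/bicarbonate buffer. Binding runs 90 min at room temperature. After washing, TMB substrate is added for 15 min and OD gives the signal.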

[7] = target: T3, pm3 (Y17 sulfated; Y15 and Y16 not sulfated); test: ELISA on coated peptide [cont.]
T3 construct: also called sulfated CCR8 N-terminal peptide pm3
Summary of the method: as §1

[8] = target: T4, pm8 (Y15, Y16 and Y17 sulfated); test: ELISA on coated peptide [cont.]
T4 construct: also called sulfated CCR8 N-terminal peptide pm8
Summary of the method: as §1

[9] = target: T5, pm1 (sulfated tyrosine(s) among Y15, Y16, Y17; which ones is not told (the underlining of Table 1 is lost in the text)); test: ELISA on coated peptide [cont.]
T5 construct: also called sulfated CCR8 N-terminal peptide pm1
Summary of the method: as §1

[10] = target: T6, pm6 (Y16 and Y17 sulfated; Y15 not sulfated); test: ELISA on coated peptide [cont.]
T6 construct: also called sulfated CCR8 N-terminal peptide pm6
Summary of the method: as §1

[11] = target: T7, pm5 (Y15 and Y17 sulfated; Y16 not sulfated); test: ELISA on coated peptide [cont.]
T7 construct: also called sulfated CCR8 N-terminal peptide pm5
Summary of the method: as §1

[12] = target: T8, pm4 (sulfated tyrosine(s) among Y15, Y16, Y17; which ones is not told (the underlining of Table 1 is lost in the text)); test: ELISA on coated peptide [cont.]
T8 construct: also called sulfated CCR8 N-terminal peptide pm4
Summary of the method: as §1

[13] = target: T9, pwt1 (none (unmodified peptide)); test: ELISA on coated peptide [cont.]
T9 construct: also called unmodified CCR8 N-terminal peptide
Summary of the method: as §1

[14] = target: T1, human CCR8; test: cell-based or functional assay; remark: listed apart in the source
[15] = target: T10, human CCR8 with a SNAP-tag at the N-terminus (human, UniProt P51685 1-355, SNAP-tag labelled covalently with Lumi4-Terbium); test: cell-based or functional assay
[16] = target: T10, human CCR8 with a SNAP-tag at the …; test: HTRF Tag-lite, inhibition of hCCL1-AF647 binding to SNAP-hCCR8 on HEK-293 cells
Procedure: The inhibition of CCL1 binding to hCCR8 was evaluated with the Tag-Lite® technology from Cisbio (Revvity). Human CCR8 is engineered with a SNAP-tag at the N-terminus of the GPCR. hCCR8 SNAP-tag is transiently transfected on HEK-293 cell line using FuGene® (Promega, Madison, WI, USA). 48 hours after transfection, cells are labeled with the substrate Lumi4-Terbium® (Cisbio, Codolet, France) which covalently reacts with the SNAP-tag, for 1 h at 37° C. Thawed or freshly labeled cells are plated in a 384 low volume white plate (GREINER Bio-One, Courtaboeuf, France) (10000 cells/well/10 μl). […] The Kd was previously obtained in a saturation binding assay on the same cells. […] The plate is next incubated at 21° C. for 2 h. Detection of HTRF signal is performed on the multiplate reader EnVision (PerkinElmer, Waltham, MA, USA). The HTRF (665/620) ratio is calculated by EnVision software, the data exported are considered as the total binding. The specific binding is calculated then by subtracting the non-specific signal from the total binding. The Ki and IC₅₀ are calculated using the “One site-Fit Ki” and “One site-FitlogIC50” from GraphPad Prism 9 (Graphpad Software, San Diego, CA, USA), respectively.

[17] = target: T1, human CCR8; test: cell-based or functional assay; remark: listed apart in the source
[18] = target: T1, human CCR8; test: flow cytometry, HUT78 cells (endogenous CCR8)
Procedure: In human activated T cells model, prior to mAb incubation, cells were first incubated with 200 nM of hCCL1 (R&D Systems, Minneapolis, MN, USA) or buffer PBS (Invitrogen by Thermofisher Scientific, Illkirch-Graffenstaden, France) supplemented by 2% Fetal Bovine Serum (Invitrogen by Thermofisher Scientific, Illkirch-Graffenstaden, France) and 2 mM EDTA (Invitrogen by Thermofisher Scientific, Illkirch-Graffenstaden, France) during 1 hour at 4° C. To determine EC50 value, 8 concentrations of anti-CCR8 mAb were tested. Unbound antibodies were washed away with PBS (Invitrogen by Thermofisher Scientific, Illkirch-Graffenstaden, France) supplemented by 2% Fetal Bovine Serum (Invitrogen by Thermofisher Scientific, Illkirch-Graffenstaden, France) and 2 mM EDTA (Invitrogen by Thermofisher Scientific, Illkirch-Graffenstaden, France). Subsequently, cells are centrifuged (5 min at 400 g) and bound antibody is detected with F(ab′)2-Goat anti-Mouse IgG (H+L) Cross-Adsorbed Secondary Antibody, Alexa Fluor 488 (dilution 1/500) (Invitrogen by Thermofisher Scientific, Illkirch-Graffenstaden, France) or with F(ab′)₂-Goat anti-Human IgG Fc Secondary Antibody, PE (Invitrogen by Thermofisher Scientific, Illkirch-Graffenstaden, France) (dilution 1/1000) at 4° C. for 30 min. Detection reagent is washed away and cells are centrifuged (5 min at 400 g) and resuspended in 30 μL PBS. Bound detection antibody is quantified on a MacsQuant16 (Miltenyi, Gladbach, Germany) (B1 or B2 channel, 5000 events per acquisition). During the experiment, the respective isotype mAb controls (mouse IgG1, mouse IgG2a, mouse IgG2b, mouse IgG3 or human IgG1) (Biolegend, Amsterdam, The Netherlands) are included to exclude any unspecific binding events. EC50 values were determined via nonlinear fit “log (agonist) vs.response—Variable slope (four parameters)” function of Graphpad prism. EC50 values were not constantly determined in the same experiments.
Anti-CCR8 mAb cellular reactivity was also evaluated on native human CCR8 from HUT78 cell line by flow cytometry. In Table 4.3, Mean Fluorescence Intensity (Fold change to isotype control), the percentage of labelled cells and EC50 in nM of some anti-CCR8 antibodies are presented.

T7 sequence (peptide, as listed by the source): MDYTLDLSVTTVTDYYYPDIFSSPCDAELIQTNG
T2 sequence (peptide, as listed by the source): as above
T9 sequence (peptide, as listed by the source): as above
T5 sequence (peptide, as listed by the source): as above
T6 sequence (peptide, as listed by the source): as above
T3 sequence (peptide, as listed by the source): as above
T8 sequence (peptide, as listed by the source): as above
T4 sequence (peptide, as listed by the source): as above

Binder	extrapolated top plateau of hCCL1 curve with 5 µg/mL mAb, protocol #3 [2]	residual hCCL1 (100 nM) Gi2 response, protocol #2, mAb 0.08 µg/mL [5] [%]	residual hCCL1 (100 nM) Gi2 response, protocol #2, mAb 0.4 µg/mL [5] [%]	residual hCCL1 (100 nM) Gi2 response, protocol #2, mAb 10 µg/mL [5] [%]	residual hCCL1 (100 nM) Gi2 response, protocol #3, mAb 0.05 µg/mL [5] [%]	residual hCCL1 (100 nM) Gi2 response, protocol #3, mAb 0.5 µg/mL [5] [%]	residual hCCL1 (100 nM) Gi2 response, protocol #3, mAb 5 µg/mL [5] [%]	binding result [6]	binding result [7]	binding result [8]	binding result [9]	binding result [10]	binding result [11]	binding result [12]	binding result [13]	IC50 of CCL1-induced hCCR8 Gi2 signaling (BRET, HEK-293) [14]	% hCCR8 internalization with CCL1 300 nM, mAb 1 µg/ml (HTRF) [15] [%]	% hCCR8 internalization with CCL1 300 nM, mAb 10 µg/ml (HTRF) [15] [%]	IC50 [16] [µg/mL]	Ki [16] [µg/mL]	also measured
B1	667000 % of hCCL1 (100 nM)	79	38	17	102	64	47	binds	binds	binds	binds	binds	binds	binds	binds	0.049 µg/mL and 0.328 nM					% positive cells [1]: 81.1%; MFI fold change to isotype ctrl [1]: 10.7 fold; IC50 of CCL1-induced hCCR8 Gi2 signaling (BRET), pH 6.5 [3]: 0.044 µg/ml and 0.292 nM; IC50 of CCL1-induced hCCR8 Gi2 signaling (BRET), pH 7.4 [3]: 0.061 µg/ml and 0.405 nM; IC50 [4]: 1.3 µg/mL and 8.71 nM
B2	569000 % of hCCL1 (100 nM)	67	55	32	86	60	42	binds	binds	binds	binds	binds	binds	binds	binds	0.022 µg/mL and 0.148 nM	44	29	0.04	0.02	ADCC % max lysis, HUT78 targets, NK donor 3 [17]: 15%; ADCC % max lysis, HUT78 targets, NK donor 4 [17]: 16%; ADCC EC50, HUT78 targets, NK donor 3 [17]: 505 pM; ADCC EC50, HUT78 targets, NK donor 4 [17]: 573 pM; % of labelled cells [18]: 96%
B3	366000 % of hCCL1 (100 nM)	77	66	41	73	52	37	binds	binds	binds	binds	binds	binds	binds	binds	0.034 µg/mL and 0.224 nM	44	36	0.04	0.02	% of labelled cells [18]: 88%; EC50 [18]: 0.2 nM
